Results on 2 molecules are retold here after publication PMC3792052, “Structural Analysis of Intermolecular Interactions in the Kinesin Adaptor Complex Fasciculation and Elongation Protein Zeta 1/ Short Coiled-Coil Protein (FEZ1/SCOCO)” (PLoS ONE, 2013).

Data set [1] addresses 6xHis-FEZ1 (1-392) (human) (UniProt Q99689). Briefly: SAXS; complex formed by lysing the two E. coli pellets together, two-step co-affinity purification (6xHis, then GST); purified complex at 1.10 and 0.34 mg/mL in PBS, 20 °C; mass from I(0) against BSA.
Data set [2] concerns the molecule itself. The data set is described as above.

In data set [1], GST-SCOCO (2-82) (natural protein) had a stoichiometry N (GST-SCOCO per 6xHis-FEZ1 (2:2)) of 1.

B1: 6xHis-FEZ1 (1-392) (natural protein, human, UniProt Q99689 1-392, looked up)
chain: MEAPLVSLDEEFEDLRPSCSEDPEEKPQCFYGSSPHHLEDPSLSELENFSSEIISFKSMEDLVNEFDEKLNVCFRNYNAKTENLAPVKNQLQIQEEEETLQDEEVWDALTDNYIPSLSEDWRDPNIEALNGNCSDTEIHEKEEEEFNEKSENDSGINEEPLLTADQVIEEIEEMMQNSPDPEEEEEVLEEEDGGETSSQADSVLLQEMQALTQTFNNNWSYEGLRHMSGSELTELLDQVEGAIRDFSEELVQQLARRDELEFEKEVKNSFITVLIEVQNKQKEQRELMKKRRKEKGLSLQSSRIEKGNQMPLKRFSMEGISNILQSGIRQTFGSSGTDKQYLNTVIPYEKKASPPSVEDLQMLTNILFAMKEDNEKVPTLLTDYILKVLCPT
notes: Predicted mass of the tagged protein printed as 48.8 KDa; also called fasciculation and elongation protein zeta 1; source: for SAXS cells lysed together with GST-SCOCO cells and co-purified (HiTrap chelating, then GST-Trap)
By stoichiometry N is commonly meant a count of units in the complex or per binding partner. For the molecule B1, in data set [2], the “stoichiometry N” value was found to be 2.
